For assay [1], the target named is rh integrin α4β7 (R&D Systems #5397-A30) (human) (UniProt P13612). The experiment in a line: competition ELISA vs MAdCAM-1.
The target of assay [2] is α4β1 (R&D Systems #5668-A4) (UniProt P13612). Put plainly: competition ELISA vs VCAM-1.
Assay [3] concerns the target human α4β7 integrin on cells (human) (UniProt P13612). The experiment in a line: RPMI8866 adhesion to MAdCAM-1.
Assay [4] addresses mouse α4β7 integrin on TK1 cells (mouse) (UniProt Q00651). The experiment in a line: TK1 adhesion to MAdCAM-1.
In assay [5] the target is T1, rh integrin α4β7 (R&D Systems #5397-A30) (human, UniProt P13612 34-970; P26010 20-723).
T1 construct: Bought recombinant heterodimer, coated on a nickel plate; also called immobilized α4β7; soluble α4β7 integrin
The experiment in a line: SPR, biotin peptide on streptavidin chip, soluble α4β7. On the technique in general: In SPR one partner is held on a chip, and binding of the other changes the refractive index at the surface.

For assay [6], the target named is human α4β7 integrin on cells (human) (UniProt P13612). The experiment in a line: PBMC memory T cell adhesion.
Assay [7] deals with T1, rh integrin α4β7 (R&D Systems #5397-A30). Put plainly: competition ELISA vs MAdCAM-1. On the technique in general: An ELISA detects its analyte on a solid surface through an enzyme-linked reagent.
Assay [8] deals with human α4β7 integrin on cells (human) (UniProt P13612). The experiment in a line: FACS, human whole blood, 1 mM MnCl2; Neutrophils. For orientation: In flow cytometry, cells or beads pass a laser one at a time.
Assay [9] shares this target. The experiment in a line: FACS, human whole blood, 1 mM MnCl2; NK cells CD16+ 56+.
For assay [10] the target is unchanged. The experiment in a line: FACS, human whole blood, 1 mM MnCl2; CD8 naïve T cells.
Assay [11] shares this target. Put plainly: FACS, human whole blood, 1 mM MnCl2; CD19+ B cells.
The target is the same in assay [12]. The experiment in a line: FACS, human whole blood, 1 mM MnCl2; Monocytes.
For assay [13], the target named is rh integrin α4β7 (R&D Systems #5397-A30) (human) (UniProt P13612). Put plainly: SPR, biotin antibody on streptavidin chip, soluble α4β7.
In assay [14] the target is human α4β7 integrin on cells (human) (UniProt P13612). The experiment in a line: FACS, human whole blood, 1 mM MnCl2; Eosinophils.
For assay [15] the target is unchanged. The experiment in a line: FACS, human whole blood, 1 mM MnCl2; CD4 memory T cells.
For assay [16] the target is unchanged. The experiment in a line: FACS, human whole blood, 1 mM MnCl2; CD8 memory T cells.
The target is the same in assay [17]. Put plainly: FACS, human whole blood, 1 mM MnCl2; CD4 naïve T cells.
Assay [18] has the same target. Put plainly: FACS, human whole blood, 1 mM MnCl2; Basophils.

19 molecules from patent US20180148477A1 (published 2018) can be followed below.

Broadly, the IC50 is the concentration needed to halve the response being measured. The low end stands for inhibition by little substance, the high end for a need for much substance. A word on the Kd: it is the equilibrium constant for the complex coming apart. Lower therefore signals higher affinity. Usually koff stands for a measure of how fast the partners let go of each other. A lower koff goes with slow dissociation. As a reminder, the kon is the second-order rate constant of association. A higher kon goes with faster complex formation.

Several values for one entry are separate records, joined by “and”; a condition that tells them apart may be missing. Identical values can stand only once. Bridge positions count the residues as written; N and C are the ends. Square brackets hold non-standard residues; d marks the D form. Ends that are not written are not given here. Phe(4-tBu) = CC(C)(C)c1ccc(C[C@H](N)C(=O)O)cc1; Bip = N[C@@H](Cc1ccc(-c2ccccc2)cc1)C(=O)O; 1Nal = N[C@@H](Cc1cccc2ccccc12)C(=O)O; 2Nal = N[C@@H](Cc1ccc2ccccc2c1)C(=O)O; NMeR = CN[C@@H](CCCNC(=N)N)C(=O)O; Tic = O=C(O)[C@@H]1Cc2ccccc2CN1; β3hE = N[C@@H](CCC(=O)O)CC(=O)O; NMeK = CN[C@@H](CCCCN)C(=O)O; Pen = CC(C)(S)[C@H](N)C(=O)O; dNMeK = CN[C@H](CCCCN)C(=O)O

mouse α4β7 integrin on TK1 cells (mouse), sequence (Q00651 41-1039, chain 1 of 2): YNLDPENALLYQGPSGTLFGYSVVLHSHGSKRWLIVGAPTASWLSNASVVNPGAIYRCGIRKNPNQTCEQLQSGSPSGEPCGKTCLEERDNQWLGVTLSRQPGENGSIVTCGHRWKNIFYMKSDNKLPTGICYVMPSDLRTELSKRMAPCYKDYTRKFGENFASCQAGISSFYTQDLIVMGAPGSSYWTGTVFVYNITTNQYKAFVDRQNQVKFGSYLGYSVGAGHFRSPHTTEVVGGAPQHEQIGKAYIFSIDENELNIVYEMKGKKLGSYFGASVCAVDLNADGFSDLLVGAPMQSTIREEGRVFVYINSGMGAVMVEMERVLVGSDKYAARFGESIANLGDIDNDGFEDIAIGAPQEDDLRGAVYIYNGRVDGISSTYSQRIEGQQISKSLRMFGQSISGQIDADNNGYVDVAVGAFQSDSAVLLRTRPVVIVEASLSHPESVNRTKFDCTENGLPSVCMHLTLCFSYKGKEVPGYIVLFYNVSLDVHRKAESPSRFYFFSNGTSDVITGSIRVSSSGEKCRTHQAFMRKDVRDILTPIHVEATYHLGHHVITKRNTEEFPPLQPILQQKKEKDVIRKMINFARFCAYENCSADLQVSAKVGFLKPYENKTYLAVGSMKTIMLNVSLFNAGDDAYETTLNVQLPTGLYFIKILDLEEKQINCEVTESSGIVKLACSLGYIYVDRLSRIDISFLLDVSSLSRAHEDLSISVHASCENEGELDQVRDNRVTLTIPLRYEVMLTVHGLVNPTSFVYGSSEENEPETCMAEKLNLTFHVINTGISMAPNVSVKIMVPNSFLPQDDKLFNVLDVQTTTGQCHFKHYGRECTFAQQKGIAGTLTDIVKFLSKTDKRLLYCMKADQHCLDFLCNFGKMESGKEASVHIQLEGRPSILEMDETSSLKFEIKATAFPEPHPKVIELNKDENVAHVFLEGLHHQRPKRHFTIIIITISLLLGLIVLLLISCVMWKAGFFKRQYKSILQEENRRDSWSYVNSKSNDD
mouse α4β7 integrin on TK1 cells (mouse), sequence (P26011 20-806, chain 2 of 2, further chain): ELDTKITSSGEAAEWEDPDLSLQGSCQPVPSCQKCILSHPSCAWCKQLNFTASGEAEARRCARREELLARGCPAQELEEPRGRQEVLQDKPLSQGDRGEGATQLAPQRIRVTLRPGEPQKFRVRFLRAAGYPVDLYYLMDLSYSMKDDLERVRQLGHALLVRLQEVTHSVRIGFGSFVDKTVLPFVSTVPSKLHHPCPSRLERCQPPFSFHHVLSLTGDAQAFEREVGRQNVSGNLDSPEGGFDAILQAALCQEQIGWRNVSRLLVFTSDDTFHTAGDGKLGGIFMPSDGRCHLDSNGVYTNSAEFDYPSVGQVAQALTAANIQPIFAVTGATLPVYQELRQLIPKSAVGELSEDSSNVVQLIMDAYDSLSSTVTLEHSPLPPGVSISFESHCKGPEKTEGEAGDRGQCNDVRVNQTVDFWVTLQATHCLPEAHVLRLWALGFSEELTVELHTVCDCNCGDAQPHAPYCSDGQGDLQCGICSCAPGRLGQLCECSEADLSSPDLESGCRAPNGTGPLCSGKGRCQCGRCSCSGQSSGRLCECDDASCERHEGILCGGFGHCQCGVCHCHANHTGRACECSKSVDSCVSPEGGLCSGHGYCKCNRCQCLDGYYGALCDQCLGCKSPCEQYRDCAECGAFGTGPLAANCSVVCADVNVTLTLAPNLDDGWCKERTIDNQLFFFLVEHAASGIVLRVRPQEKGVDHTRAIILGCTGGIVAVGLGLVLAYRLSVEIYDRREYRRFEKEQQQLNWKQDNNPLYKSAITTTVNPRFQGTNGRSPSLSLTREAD

B1: SEQ ID NO: 18 (peptide)
peptide: Ac-[Pen][NMeR]SDTL[Pen][1Nal]E[dNMeK]-NH2
modifications: disulfide 1-7
SMILES: CC(=O)N[C@@H]1C(=O)N(C)[C@@H](CCCNC(=N)N)C(=O)N[C@@H](CO)C(=O)N[C@@H](CC(=O)O)C(=O)N[C@@H]([C@@H](C)O)C(=O)N[C@@H](CC(C)C)C(=O)N[C@H](C(=O)N[C@@H](Cc2cccc3ccccc23)C(=O)N[C@@H](CCC(=O)O)C(=O)N(C)[C@H](CCCCN)C(N)=O)C(C)(C)SSC1(C)C
On to B1, for which the IC50 in [1] is over 10 nM; in assay [2] it was over 500 nM.

B2: SEQ ID NO: 38 (peptide)
peptide: Ac-[Pen][NMeR]SDTL[Pen][1Nal][dE][dNMeK]-NH2
modifications: disulfide 1-7; also: dimer via DIG
As for B2, the IC50 in [3] was under 10 nM; in assay [1] it was under 10 nM; in assay [2], over 100 nM.

B3: SEQ ID NO: 154 (peptide)
peptide: Ac-[Pen][NMeR]SDTL[Pen][Tic][β3hE]-NH2
modifications: disulfide 1-7 (inferred)
On to B3, for which the IC50 in assay [3] was over 100 nM; in assay [4] it was over 1000 nM; in assay [2], over 1000 nM.

B4: Peptide X-biotin (peptide)
peptide: Ac-[Pen][NMeR]SDTL[Pen][Phe(4-tBu)][β3hE][dK]
modifications: disulfide 1-7 (inferred); also: biotin attached via PEG linker, site not given here, dimer of two subunits joined by DIG linker, as Peptide X
For the molecule B4, in [5], the half-life for dissociation is 11.1 h and ~11 h.

B5: SEQ ID NO: 142 (peptide)
peptide: Ac-[Pen][NMeR]SDTL[Pen][1Nal][β3hE][NMeK]-NH2
modifications: disulfide 1-7 (inferred); also: dimer via DIG linker
Consider B5, for which the IC50 is under 10 nM in assay [3], under 10 nM in assay [1], over 500 nM in [2] and over 50 nM in assay [6].

B6: SEQ ID NO: 24 (peptide)
peptide: Ac-[Pen][NMeR]SDTL[Pen][1Nal]E[dK]-NH2
modifications: disulfide 1-7; also: dimer via DIG
B6: the IC50 was under 10 nM in [3], under 10 nM in assay [1] and over 100 nM in assay [2].

B7: SEQ ID NO: 47 (peptide)
chain: Ac-[Pen][NMeR]S[Prop acid]TL[Pen]WE[dK]-NH2
modifications: disulfide 1-7
Take B7: the concentration for half-maximal inhibition (IC50) in [7] was over 1000 nM.

B8: Vedolizumab-biotin (antibody, INN chains, looked up, V domains shown)
VH: QVQLVQSGAEVKKPGASVKVSCKGSGYTFTSYWMHWVRQAPGQRLEWIGEIDPSESNTNYNQKFKGRVTLTVDISASTAYMELSSLRSEDTAVYYCARGGYDGWDYAIDYWGQGTLVTVSS
VL: DVVMTQSPLSLPVTPGEPASISCRSSQSLAKSYGNTYLSWYLQKPGQSPQLLIYGISNRFSGVPDRFSGSGSGTDFTLKISRVEAEDVGVYYCLQGTHQPYTFGQGTKVEIKR
modifications: biotin label
Turning to B8, the Percent positive staining in assay [8] came to 0.45%; in assay [9], 42%; in assay [10], 53%; in [11], 85%; in [12], 7%; in assay [14] it was 91%. Besides, the Percent positive staining in assay [15] is 22%; in assay [16] it was 36%; in [17] it was 55%; in assay [18], 86%. Moreover, in assay [13], the Half-life for dissociation worked out at 0.717 h. In assay [13], the equilibrium dissociation constant (Kd) came to 59.5 nM. The dissociation rate constant (koff) in assay [13] amounted to 0.000266 s⁻¹. In assay [13], this molecule came in with an association rate constant (kon) of 4470 M⁻¹ s⁻¹.

B9: SEQ ID NO: 23 (peptide)
peptide: Ac-[Pen][NMeR]SDTL[Pen][2Nal]Y[dK]-NH2
modifications: disulfide 1-7; also: dimer via DIG
Take B9: the values for the IC50 in assay [3] and in assay [2] were under 10 nM and over 100 nM, respectively.

B10: Peptide 210 (peptide)
peptide: Ac-[Pen][NMeR]SDTL[Pen][2Nal]E[dK]-NH2
modifications: disulfide 1-7
SMILES: CC(=O)N[C@@H]1C(=O)N(C)[C@@H](CCCNC(=N)N)C(=O)N[C@@H](CO)C(=O)N[C@@H](CC(=O)O)C(=O)N[C@@H]([C@@H](C)O)C(=O)N[C@@H](CC(C)C)C(=O)N[C@H](C(=O)N[C@@H](Cc2ccc3ccccc3c2)C(=O)N[C@@H](CCC(=O)O)C(=O)N[C@H](CCCCN)C(N)=O)C(C)(C)SSC1(C)C
In the case of B10, the IC50 turned out to be 40 nM in assay [3]; 60 nM in assay [4]; 11 nM in assay [1]; 200 nM in assay [2]; 517 nM in [6].

B11: SEQ ID NO: 134 (peptide)
peptide: Ac-[Pen][NMeR]SDTL[Pen][Bip]E[dK]-NH2
modifications: disulfide 1-7 (inferred); also: homodimer via DIG
B11: the IC50 in assay [3] was under 10 nM; in assay [1] it was under 10 nM; in assay [2], over 100 nM.

B12: SEQ ID NO: 137 (peptide)
peptide: Ac-[Pen][NMeR]SDTL[Pen][2Nal][β3hE][dK]-NH2
modifications: disulfide 1-7 (inferred); also: homodimer via DIG
As to B12, the IC50 was under 10 nM in assay [3], under 10 nM in [1] and over 1000 nM in assay [2].

B13: SEQ ID NO: 32 (peptide)
peptide: Ac-[Pen][NMeR]SDTL[Pen][1Nal][dE][dK]-NH2
modifications: disulfide 1-7; also: dimer via DIG
In the case of B13, the values for the IC50 in assay [3], in assay [1] and in [2] were over 10 nM, under 10 nM and over 100 nM, respectively.

B14: Peptide 212 (peptide)
peptide: Ac-[Pen][NMeR]SDTL[Pen][2Nal]E[dK]-NH2
modifications: disulfide 1-7; also: dimer via DIG, attachment site not given here
For B14, the half-inhibitory concentration (IC50) in [3] was 2.5 nM; in assay [4], 2.5 nM; in assay [1], 2 nM; in assay [2], 70 nM.

B15: SEQ ID NO: 44 (peptide)
peptide: Ac-[Pen][NMeR]SDTL[Pen][1Nal]E[dNMeK]-NH2
modifications: disulfide 1-7; also: dimer via DIG
Turning to B15, the IC50 in [3] is under 10 nM; in [4], under 10 nM; in assay [1] it was under 10 nM; in assay [2], over 100 nM.

B16: SEQ ID NO: 150 (peptide)
peptide: Ac-[Pen][NMeR]SDTL[Pen][Bip][β3hE][NMeK]-NH2
modifications: disulfide 1-7 (inferred); also: dimer via DIG linker
On to B16, for which the IC50 was under 10 nM in [3], under 10 nM in [4], under 10 nM in [1] and over 1000 nM in assay [2].

B17: SEQ ID NO: 33 (peptide)
peptide: Ac-[Pen][NMeR]SDTL[Pen][2Nal][dE][dK]-NH2
modifications: disulfide 1-7; also: dimer via DIG
With B17, the IC50 in [3] is over 10 nM; in assay [1], under 10 nM; in [2] it was over 100 nM.

B18: SEQ ID NO: 155 (peptide)
peptide: Ac-[Pen][NMeR]SDTL[Pen][2Nal][β3hE]-NH2
modifications: disulfide 1-7 (inferred)
Take B18: the IC50 is over 25 nM in assay [3], over 25 nM in assay [4] and over 1000 nM in assay [2].

B19: SEQ ID NO: 41 (peptide)
peptide: Ac-[Pen][NMeR]SDTL[Pen][2Nal]E[dNMeK]-NH2
modifications: disulfide 1-7; also: dimer via DIG
With B19, the figures for the 50% inhibitory concentration (IC50) in assay [3], in assay [1] and in assay [2] were under 10 nM, under 10 nM and over 100 nM, respectively.
